In the experiment the target is soluble form of cation-independent mannose-6-phosphate receptor (lacking the membrane anchor sequence). The experiment can be described thus: SPR (Biacore), soluble CIMPR immobilised on dextran chip, analyte flowed at 20 µL/min, RU after 3 min less control cell.

As for “α-galactosidase conjugated to 10 kDa 4-arm dendrimer (star) hydrazide PEG (Hz4PEG), prepared with 10% w/v PEG (from UniProt P06280 32-429) (enzyme)”, the fold higher concentration needed for the same change in RU, against unmodified α-galactosidase was 10 fold.

Source of the values: patent US20170042979A1.
